The results in this text go back to patent US7413873.

This test concerns the target full length TCF1. The experiment in a line: cell-based or functional assay.

Sequence of β-catenin (wild type) (P35222 2-781): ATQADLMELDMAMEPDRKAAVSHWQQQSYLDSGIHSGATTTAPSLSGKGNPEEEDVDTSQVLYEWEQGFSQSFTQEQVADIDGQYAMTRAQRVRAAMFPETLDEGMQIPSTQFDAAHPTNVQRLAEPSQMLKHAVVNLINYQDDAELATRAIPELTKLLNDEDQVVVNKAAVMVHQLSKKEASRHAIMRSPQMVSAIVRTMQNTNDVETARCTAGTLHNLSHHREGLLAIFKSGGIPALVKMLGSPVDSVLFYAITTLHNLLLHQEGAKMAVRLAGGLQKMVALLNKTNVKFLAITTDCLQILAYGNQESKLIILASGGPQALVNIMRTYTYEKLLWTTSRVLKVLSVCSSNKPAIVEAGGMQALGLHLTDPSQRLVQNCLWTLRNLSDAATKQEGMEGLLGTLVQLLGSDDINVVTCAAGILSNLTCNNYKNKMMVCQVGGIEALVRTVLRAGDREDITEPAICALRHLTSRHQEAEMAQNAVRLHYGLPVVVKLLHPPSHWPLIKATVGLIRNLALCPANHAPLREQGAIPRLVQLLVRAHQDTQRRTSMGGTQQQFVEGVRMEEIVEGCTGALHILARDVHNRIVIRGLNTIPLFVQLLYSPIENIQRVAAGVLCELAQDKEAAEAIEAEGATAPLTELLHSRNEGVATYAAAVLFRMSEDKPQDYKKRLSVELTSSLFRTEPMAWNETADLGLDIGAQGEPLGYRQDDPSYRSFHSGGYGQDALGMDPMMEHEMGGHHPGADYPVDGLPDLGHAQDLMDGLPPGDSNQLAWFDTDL

β-catenin (wild type) gave an activation of luciferase reporter gene driven by the LEF1 promoter (-672, +305), co-transfection in 2017 T lymphocytes of 7 fold.
